Assay [1] addresses chicken MC5R + MRAP1 (Gallus gallus, UniProt O73671). Conditions: 2020, cited from earlier work; for effect of MRAP1 on cMC5R sensitivity: CHO cells, ref Thomas et al., 2018, Dores et al. The source says:
(§1) Since the R15K and I20 V substitutions in chicken and human ACTH occur in/near the KKRRP motif (Figure 2A), it might lead to different regulatory effects o ...

Assay [2] deals with MC5R orthologs + MRAP1. Conditions: ref Dores et al., 2018, Barney et al., 2019, 2020, Hoglin et al., 2022; cited from earlier work.
Text: as §1

Assay [3] relates to chicken MC2R + MRAP1. Particulars: co-expressed with MRAP1 in CHO cells; ref Barlock et al., 2014; cited from earlier work. The source says: In the chicken genome, there are five paralogous MCRs and two MRAPs ([Ling et al., 2004]; [Barlock et al., 2014]; [Zhang et al., 2017]; [Thomas et al., 2018]). In recent years, the pharmacological characterization and physiological activity of chicken MCRs (cMCRs) have been widely explored ([Scanes and Pierzchala-Koziec, 2021]). […] MC1R of dark-feathered chickens with a Glu to Lys mutation at position 92 show ...

Assay [4] has as its target chicken MC5R (Gallus gallus, UniProt O73671). Also on record: method as in 3 sources, ref Ling et al., 2004 ||| ref Dores et al., 2020 ||| ref Schioth et al., 1997; Ling et al., 2004. Conditions: cited from earlier work; for EC50 values / potency at chicken MC5R compared (in words): human α-MSH vs ACTH1-24, ref Ling et al.
Assay [5] relates to human MC5R. Particulars: ref Schioth et al., 1997; Ling et al., 2004; cited from earlier work. The source says:
The luciferase reporter system was then employed to investigate the signal pathway of MC5R coupling. […] Human peptides have previously been ...

The target of assay [6] is chicken MC5R + MRAP2 (Gallus gallus, UniProt O73671). Further details: method as in Thomas et al., 2018. Particulars: ref Thomas et al., 2018; cited from earlier work.
Chain of chicken MC5R + MRAP2 (O73671 1-325): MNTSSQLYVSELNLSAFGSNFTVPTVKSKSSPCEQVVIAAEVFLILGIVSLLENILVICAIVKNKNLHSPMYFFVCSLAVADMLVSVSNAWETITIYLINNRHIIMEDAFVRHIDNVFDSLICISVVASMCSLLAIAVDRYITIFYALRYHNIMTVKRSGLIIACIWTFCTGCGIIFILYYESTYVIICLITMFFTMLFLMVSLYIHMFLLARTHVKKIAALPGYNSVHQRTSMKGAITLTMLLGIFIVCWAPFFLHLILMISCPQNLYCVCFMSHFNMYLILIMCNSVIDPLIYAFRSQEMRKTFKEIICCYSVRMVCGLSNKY
Chain of chicken MC5R + MRAP2 (A0A140B2F4 1-206 partner): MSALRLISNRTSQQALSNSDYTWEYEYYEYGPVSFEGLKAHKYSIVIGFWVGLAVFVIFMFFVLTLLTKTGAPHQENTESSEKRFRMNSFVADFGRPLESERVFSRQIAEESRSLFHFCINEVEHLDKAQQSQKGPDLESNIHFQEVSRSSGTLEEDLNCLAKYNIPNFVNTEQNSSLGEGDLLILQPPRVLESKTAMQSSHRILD
In assay [7] the test system is primary chicken hepatocytes. Nature of the assay: Glucose production from primary cultured chicken hepatocytes. Format: cell-based. Particulars: primary chicken hepatocytes; 100 nM for 30 or 60 min, or 0.1–100 nM for 60 min; gluconeogenic substrates 20 mM lactate, 2 mM pyruvate; four independent experiments; Figures 7A,B. Here is the method: (§2) To evaluate the effect of ACTH1-39 on chicken liver, the chicken hepatocytes were prepared and maintained as a monolayer culture. Briefly, one-month-old male chicken hepatocytes were isolated by perfusion of a liver with Ca^2+-free KRB buffer to remove blood cells, and being digested with 0.25% collagenase-I for 10 min. Hepatocytes were obtained following filtering and washing using M199 medium. Then the hepatocytes were plated in a Corning CellBIND 48-well microplate (Corning, NY, cat. no.3338) with M199 medium containing 100 U/ml penicillin and […] streptomycin (Gibco), 5 μg/ml bovine insulin (Sigma), and 5% FBS at 37°C in a 5% CO2 atmosphere. To adhere to the wall, the cells were incubated on the 48-well plate for 4 h.
Glucose production from primary cultured chicken hepatocytes was measured as previously described ([Collins et al., 2006]). Briefly, cells were washed three times with warm phosphate-buffered saline (PBS) to remove glucose, followed by treatment with 100 nM (or different concentration gradients) chicken ATCH1-39 for 30 min or 60 min in glucose-free medium containing gluconeogenic substrates (20 mM sodium lactate and 2 mM sodium pyruvate). Glucose concentration was determined with a glucose assay kit (Applygen, Beijing, China, catalog no. E1011). Briefly, the 5 µl medium was added into 195 µl reagent and incubated for 20 min at 37°C. Absorbance in 550 nm was measured in a standard glucose solution.

Assay [8] has as its system MC5R mRNA, primary chicken hepatocytes. Nature of the assay: MC5R mRNA in primary chicken hepatocytes, RT-qPCR. Type of assay: cell-based. Particulars: 6 h. Here is the method:
as §2, with “h. For quantitative real-time PCR, primary cultured chicken hepatocytes were treated with various concentrations of ACTH1-39 (or other composition) at 37°C for 6 h. The relative amount of mRNA was calculated using the comparative Ct method. Chicken β-actin gene was used as the reference gene. Amplification of specific transcripts was confirmed by analyzing the melting curve profile performed at the end of each run and by determining the size of the PCR products using agarose electrophoresis and ethidium bromide staining.” for “h.”

The subject of assay [9] is intracellular cAMP / CREB. Particulars: ref Herzig et al., 2001; Noriega et al., 2011; cited from earlier work. The source says: Like its mammalian counterparts, numerous putative transcription factor binding sites were found in the upstream of the MC5R transcription start site. According to reports, Foxo4 may bind to the ...

Entries after “also recorded” stand apart in the source; their conditions may differ. Where two headings read alike, the source gives them in different places.

Chain of chicken MC5R + MRAP1 (O73671 1-325): as the sequence (O73671 1-325) above
Chain of chicken MC5R (O73671 1-325): as above

As to “human ACTH1-24: shortened form of hACTH1-39 used in cited studies”, the “effect of MRAP1 on cMC5R sensitivity” value in assay [1] was “improved chicken MC5R sensitivity to human ACTH1-24”; in assay [1] (listed as hACTH1–24), “significantly increased the sensitivity of cMC5R to hACTH1–24”. In addition, the “increase of MC5R sensitivity to hACTH1–24 with cMRAP1” value in assay [1] (KKRRP motif of hACTH1–24 necessary, ref Dores et al.) is given as ~1,000 fold. Further, in [2], the “effect of MRAP1 co-expression on sensitivity of MC5R orthologs” value was “increase sensitivity to ACTH1-24”. Also, the “activation of cMC2R” value in assay [3] was “can be activated by ACTH1-24”. Besides, the “EC50 values / potency at chicken MC5R compared (in words)” value in assay [4] (2004) is given as “equal potency for chicken MC5R”; in assay [4] (2004, listed as ACTH1-24), “equivalent”. Further, the “ability of hACTH1-39 vs hACTH1-24 to activate chicken MC5R” value in assay [4] (ref Schioth et al., 1997, Ling et al., 2004) was “no different”. The “EC50 compared, hACTH1-24 vs srACTH1–24” value in [4] (srACTH1–24 has R15 and I20, ref Dores et al., 2020) is “no statistical differences in the EC50 values”. In addition, the “ability of hACTH1-39 vs hACTH1-24 to activate human MC5R” value in assay [5] is recorded as “no different”. Besides, the “effect of MRAP2 on cMC5R sensitivity” value in [6] is listed as “no influence on cMC5R sensitivity to human ACTH1–24”.
Turning to “glucagon: chicken glucagon; induce cAMP elevation in a dose-dependent way”, the “glucose production (in words)” value in assay [7] is reported as “induction of gluconeogenesis”. In addition, the “increase in MC5R mRNA abundance” value in [8] (glucagon 10–100 nM, N = 4, Figure 6E) came out at 3.5 fold. Further, the “MC5R mRNA abundance (in words)” value in assay [8] (primary chicken hepatocytes, N = 4, vs β-actin, Figures 6C-E) was “increased hepatic MC5R mRNA abundance; also recorded: enhance the expression of MC5R in cultured hepatocytes in a dose-dependent manner”. Further, the “intracellular cAMP accumulation and CREB activation” value in assay [9] is “enhance the intracellular cAMP accumulation and activate CREB”.

(Values after PMC9583845, “Characterization of the chicken melanocortin 5 receptor and its potential role in regulating hepatic glucolipid metabolism” (Frontiers in Physiology, 2022).)
